Data: patent publication US20180030151A1 (MOGAM INSTITUTE FOR BIOMEDICAL RESEARCH, published 2018)
Like-named read-outs stand apart in the source and are kept apart here.

What was measured:
[1] = target: T1, recombinant human TFPI (tissue factor pathway inhibitor) (human, UniProt P10646 29-304); assay: cell-based or functional assay
[2] = target: T1, recombinant human TFPI (tissue factor …); assay: cell-based or functional assay; remark: listed apart in the source
[3] = target: T1, recombinant human TFPI (tissue factor …); assay: cell-based or functional assay; remark: listed apart in the source
[4] = target: T1, recombinant human TFPI (tissue factor …); assay: cell-based or functional assay; remark: listed apart in the source
[5] = target: T1, recombinant human TFPI (tissue factor …); assay: cell-based or functional assay; remark: listed apart in the source
[6] = target: T1, recombinant human TFPI (tissue factor …); assay: SPR, Biacore T-200; IgG captured on protein A (CM5), TFPI as analyte
Experimental: Dissociation of the TFPI associated with the antibody was induced by running 10 mM glycine-HCl (pH 1.5) at a flow rate for 30 seconds. The affinities in terms of kinetic rate constants (Kₒₙ and Koff) and equilibrium dissociation constant (KD) were evaluated using Biacore T-200 evaluation software, and the results are shown in Table 24 below.

[7] = target: T1, recombinant human TFPI (tissue factor …); assay: cell-based or functional assay; remark: listed apart in the source
[8] = target: T1, recombinant human TFPI (tissue factor …); assay: cell-based or functional assay; remark: listed apart in the source
[9] = target: T1, recombinant human TFPI (tissue factor …); assay: cell-based or functional assay; remark: listed apart in the source
[10] = target: T1, recombinant human TFPI (tissue factor …); assay: cell-based or functional assay; remark: listed apart in the source

B1: clone 1023 (antibody, V domains shown)
VH: EVQLVESGGGLVKPGGSLRLSCAASGFTFSSYAMNWVRQAPGKGLEWVGTITTGGSYTYYADSVDGRFTISRDNAKNSLYLQMNSLRAEDTAVYYCARQDGNFLMDYWGQGTLVTVSS
VL: DVVMTQTPLSLPVTLGQPASISCKSSQSLLDIDGKTYLNWLQQRPGQSPKRLIYLVSKLDSGVPDRFTGSGSGTDFTLKISRVEAEDVGVYYCWQGTHFPFTFGQGTKVEIKR
notes: scFv on yeast at selection; human IgG4/kappa IgG as purified
What does the source list for B1?
FXa assay % of FXa alone, 5 nM Ab, 10 nM TFPI [1]: 16.2%; FXa assay % of FXa alone, 10 nM Ab, 10 nM TFPI [1]: 80.9%; FXa assay % of FXa alone, 20 nM Ab, 10 nM TFPI [1]: 92.8%; FXa assay OD, 2.5 nM Ab, 10 nM TFPI [1]: 0.096; FXa assay OD, 5 nM Ab, 10 nM TFPI [1]: 0.193; FXa assay OD, 10 nM Ab, 10 nM TFPI [1]: 0.963; FXa assay OD, 20 nM Ab, 10 nM TFPI [1]: 1.1; FXa assay % of FXa alone, 2.5 nM Ab, 10 nM TFPI [2]: 8.9%; FXa assay % of FXa alone, 5 nM Ab, 10 nM TFPI [2]: 63.1%; FXa assay % of FXa alone, 10 nM Ab, 10 nM TFPI [2]: 85.3%; FXa assay % of FXa alone, 20 nM Ab, 10 nM TFPI [2]: 88.5%; FXa assay OD, 2.5 nM Ab, 10 nM TFPI [2]: 0.0715; FXa assay OD, 5 nM Ab, 10 nM TFPI [2]: 0.509; FXa assay OD, 10 nM Ab, 10 nM TFPI [2]: 0.688; FXa assay OD, 20 nM Ab, 10 nM TFPI [2]: 0.714; FXa assay % of FXa alone, 2.5 nM Ab, 10 nM TFPI [3]: 5.2%; FXa assay % of FXa alone, 5 nM Ab, 10 nM TFPI [3]: 8%; FXa assay % of FXa alone, 10 nM Ab, 10 nM TFPI [3]: 52.7%; FXa assay % of FXa alone, 20 nM Ab, 10 nM TFPI [3]: 78.4%; FXa assay OD, 2.5 nM Ab, 10 nM TFPI [3]: 0.045; FXa assay OD, 5 nM Ab, 10 nM TFPI [3]: 0.0695; FXa assay OD, 10 nM Ab, 10 nM TFPI [3]: 0.459; FXa assay OD, 20 nM Ab, 10 nM TFPI [3]: 0.682; A405, TF/FVIIa/FX complex assay, Ab 1.56 nM [4]: 0.143; A405, TF/FVIIa/FX complex assay, Ab 3.13 nM [4]: 0.152; A405, TF/FVIIa/FX complex assay, Ab 6.25 nM [4]: 0.168; A405, TF/FVIIa/FX complex assay, Ab 12.5 nM [4]: 0.228; A405, TF/FVIIa/FX complex assay, Ab 25 nM [4]: 0.795; A405, TF/FVIIa/FX complex assay, Ab 50 nM [4]: 0.947; A405, TF/FVIIa/FX complex assay, Ab 100 nM [4]: 0.951; A405, TF/FVIIa/FX complex assay, Ab 1.56 nM [5]: 0.041; A405, TF/FVIIa/FX complex assay, Ab 3.13 nM [5]: 0.051; A405, TF/FVIIa/FX complex assay, Ab 6.25 nM [5]: 0.071; A405, TF/FVIIa/FX complex assay, Ab 12.5 nM [5]: 0.088; A405, TF/FVIIa/FX complex assay, Ab 25 nM [5]: 0.371; A405, TF/FVIIa/FX complex assay, Ab 50 nM [5]: 0.681; A405, TF/FVIIa/FX complex assay, Ab 100 nM [5]: 0.846; Kd [6]: 0.0301 nM; FXa assay % of FXa alone, 2.5 nM Ab, 10 nM TFPI [7]: 7.3%; FXa assay % of FXa alone, 5 nM Ab, 10 nM TFPI [7]: 25.2%; FXa assay % of FXa alone, 10 nM Ab, 10 nM TFPI [7]: 83.6%; FXa assay % of FXa alone, 20 nM Ab, 10 nM TFPI [7]: 85.5%; FXa assay OD, 2.5 nM Ab, 10 nM TFPI [7]: 0.06; FXa assay OD, 5 nM Ab, 10 nM TFPI [7]: 0.208; FXa assay OD, 10 nM Ab, 10 nM TFPI [7]: 0.691; FXa assay OD, 20 nM Ab, 10 nM TFPI [7]: 0.707; % of Normalized, TF/FVIIa/FX complex assay (FX 5 nM), Ab 1.56 nM [8]: 6.2%; % of Normalized, TF/FVIIa/FX complex assay (FX 5 nM), Ab 3.13 nM [8]: 5.9%; % of Normalized, TF/FVIIa/FX complex assay (FX 5 nM), Ab 6.25 nM [8]: 6.9%; % of Normalized, TF/FVIIa/FX complex assay (FX 5 nM), Ab 12.5 nM [8]: 9.7%; % of Normalized, TF/FVIIa/FX complex assay (FX 5 nM), Ab 25 nM [8]: 26.6%; % of Normalized, TF/FVIIa/FX complex assay (FX 5 nM), Ab 50 nM [8]: 80.5%; % of Normalized, TF/FVIIa/FX complex assay (FX 5 nM), Ab 100 nM [8]: 100%; % of Normalized, TF/FVIIa/FX complex assay, Ab 1.56 nM [9]: 16%; % of Normalized, TF/FVIIa/FX complex assay, Ab 3.13 nM [9]: 17.5%; % of Normalized, TF/FVIIa/FX complex assay, Ab 6.25 nM [9]: 19.9%; % of Normalized, TF/FVIIa/FX complex assay, Ab 12.5 nM [9]: 27.1%; % of Normalized, TF/FVIIa/FX complex assay, Ab 25 nM [9]: 96.6%; % of Normalized, TF/FVIIa/FX complex assay, Ab 50 nM [9]: 94.8%; % of Normalized, TF/FVIIa/FX complex assay, Ab 100 nM [9]: 98%; FXa assay % of FXa alone, 2.5 nM Ab, 10 nM TFPI [10]: 8.7%; FXa assay % of FXa alone, 5 nM Ab, 10 nM TFPI [10]: 47.3%; FXa assay % of FXa alone, 10 nM Ab, 10 nM TFPI [10]: 89.6%; FXa assay % of FXa alone, 20 nM Ab, 10 nM TFPI [10]: 101%; FXa assay OD, 2.5 nM Ab, 10 nM TFPI [10]: 0.042; FXa assay OD, 5 nM Ab, 10 nM TFPI [10]: 0.229; FXa assay OD, 10 nM Ab, 10 nM TFPI [10]: 0.433; FXa assay OD, 20 nM Ab, 10 nM TFPI [10]: 0.488
